The results in this text go back to patent publication US20120164754, “KIT AND METHOD OF DETERMINING NUCLEOTIDE SEQUENCE OF TARGET NUCLEIC ACID” (SAMSUNG ELECTRONICS CO., LTD., published 2012).

This data set has as its target Zif268-HMGa1-mCherry fusion protein (Mus musculus? (Zif268) / Homo sapiens …). The experiment in a line: SPR; about 140 nM; target immobilised on CM5 chip (Biacore). The protocol:
Affinity of the fusion proteins prepared in Example 1 to a target nucleic acid nucleotide sequence was measured using a surface plasmon resonance (SPR) system (Biacore) to determine the equilibrium dissociation constant, Kd, for forming the fusion protein-target nucleic acid complex. After immobilization of the target nucleic acid (SEQ ID NO. 9) to a CM5 chip, the fusion proteins were loaded into the microfluidic chamber of the SPR.
A general note: Surface plasmon resonance follows binding to a sensor surface in real time, without labels.

Chain of Zif268-HMGa1-mCherry fusion protein (Mus musculus? (Zif268) / Homo sapiens …) (chain, as listed by the source): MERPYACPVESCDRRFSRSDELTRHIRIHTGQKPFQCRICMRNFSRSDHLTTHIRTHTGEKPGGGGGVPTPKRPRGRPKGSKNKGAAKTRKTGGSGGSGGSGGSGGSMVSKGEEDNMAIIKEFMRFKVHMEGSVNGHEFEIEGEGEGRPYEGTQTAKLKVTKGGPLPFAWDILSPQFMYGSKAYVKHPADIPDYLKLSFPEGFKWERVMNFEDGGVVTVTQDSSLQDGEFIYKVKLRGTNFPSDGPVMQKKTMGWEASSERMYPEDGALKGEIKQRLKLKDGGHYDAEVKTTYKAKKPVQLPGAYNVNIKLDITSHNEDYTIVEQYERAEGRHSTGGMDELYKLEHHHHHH

B1: target nucleic acid (Zif268 target) (dsDNA)
DNA 1: GTGTGTGTGTGATCTGCGTGGGCGGTAAG
DNA 2: CTTACCGCCCACGCAGATCACACACACAC
Usually Kd stands for the concentration at which binding is half-saturated. A low value points to tighter binding. Consider B1, for which binding was put at a Kd of 140 nM.
